PMC5411485

Columns and labels:
[1] = tested on: ScNsrR D8A, [4Fe-4S] (Streptomyces coelicolor); test: EMSA; conditions: EMSA: 10 mM Tris, 54 mM KCl, 0.3% glycerol, 1.32 mM glutathione, pH 7.2, on ice ~10 min; 5% PAGE in 1x TBE
[2] = tested on: ScNsrR D8C, [4Fe-4S] (Streptomyces coelicolor); test: EMSA; conditions: EMSA: 10 mM Tris, 54 mM KCl, 0.3% glycerol, 1.32 mM glutathione, pH 7.2, on ice ~10 min; 5% PAGE in 1x TBE

hmpA1 promoter probe
K half ([4Fe-4S] protein:DNA ratio) [1]: > 20 | K half ([4Fe-4S] protein:DNA ratio) [2]: 20
